± gives the standard deviation of the averaged measurements.
What follows are sequences tested on ATP (assay: switch fluorescence ratio, 500 uM ATP over buffer (Cy3 cluster intensity, sum of 5 cycles each) (fold (ratio)); higher = stronger signal-on switching upon ATP binding; sequences stand for … in TCGTCGGCAGCGTCAGATGTGTATAAGAGACAGTTTTTTTTTTTTTTTTTTTTTTTTT…TC). Conditions: aptamer strand: ATP DNA aptamer (quencher-CACCTGGGGGAGTATTGCGGAGGAAGG + anchor), 100 nM annealed; ATP concentration: 500 uM.
How it was run: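 Clusters with intensities outside 100-1000 RFU were excluded. The remaining Cy3-labelled switching-strand clusters on a modified Illumina MiSeq flow-cell had been annealed to 100 nM quencher-labelled ATP aptamer and imaged in selection buffer, then after 15 min with 500 uM ATP at 22 °C, for five cycles separated by NaOH stripping and re-annealing. The fluorescence ratio, averaged per switch-domain sequence, is each cluster's summed target-cycle Cy3 intensity over its summed buffer-cycle Cy3 intensity.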
Work on GAAATATGTT yielded a switch fluorescence ratio of 0.999 ± 0.014. GAAATATTAG was tested, and the switch fluorescence ratio was 1.02 ± 0.032. Work on GAAATGGTAG yielded a switch fluorescence ratio of 0.99 ± 0.025. GAAATGTGGT gave a switch fluorescence ratio of 0.997 ± 0.02. GAAATGTTAG gave a switch fluorescence ratio of 0.966 ± 0.025. Sequence GAAATGTTGG has a switch fluorescence ratio of 0.981 ± 0.024. GAAATTAACT was tested, and the switch fluorescence ratio was 1.01 ± 0.033. For GAAATTGACC, the switch fluorescence ratio was 1.02 ± 0.038. GAACATGCAG gave a switch fluorescence ratio of 1.01 ± 0.03. For GAACCAGTAC, the switch fluorescence ratio was 1.82 ± 0.032. With GAACCAGTGC the switch fluorescence ratio was 1.23 ± 0.083. GAACCTGGAT gave a switch fluorescence ratio of 1.16 ± 0.038. Work on GAACCTTCGT yielded a switch fluorescence ratio of 1.05 ± 0.096. Sequence GAACGAACGG has a switch fluorescence ratio of 1.08 ± 0.06. With GAACGAAGCA the switch fluorescence ratio was 1.84 ± 0.051. With GAACGAGGGG the switch fluorescence ratio was 1.01 ± 0.019. Sequence GAACGAGGGT has a switch fluorescence ratio of 0.9676 ± 0.0013. GAACGATACA gave a switch fluorescence ratio of 1.334 ± 0.012. GAACGGAGCT gave a switch fluorescence ratio of 1.09 ± 0.052. With GAACGGAGGC the switch fluorescence ratio was 0.978 ± 0.016. With GAACGGTGTG the switch fluorescence ratio was 0.996 ± 0.0057. GAACGTACAA showed a switch fluorescence ratio of 1.587 ± 0.015. GAACGTGGAG showed a switch fluorescence ratio of 0.999 ± 0.02. GAACTAAGCT was tested, and the switch fluorescence ratio was 1.01 ± 0.028. Sequence GAACTAGGTG has a switch fluorescence ratio of 1.444 ± 0.0058. Work on GAACTCGGCG yielded a switch fluorescence ratio of 1.02 ± 0.031. In the case of GAACTCGGTC, the switch fluorescence ratio is reported as 0.994 ± 0.01. GAACTTAGAT showed a switch fluorescence ratio of 1.01 ± 0.04. In the case of GAAGAATCTG, the switch fluorescence ratio is reported as 1.03 ± 0.016. Work on GAAGAATTGT yielded a switch fluorescence ratio of 0.991 ± 0.038. GAAGACCGGT was tested, and the switch fluorescence ratio was 0.985 ± 0.047. GAAGACTACG gave a switch fluorescence ratio of 1.04 ± 0.038. Sequence GAAGAGCCTA has a switch fluorescence ratio of 0.986 ± 0.044. For GAAGATTGGG, the switch fluorescence ratio was 0.998 ± 0.053. Work on GAAGCAGGGG yielded a switch fluorescence ratio of 2.26 ± 0.74. GAAGCATAAT gave a switch fluorescence ratio of 1.27 ± 0.12. For GAAGCCGGAC, the switch fluorescence ratio was 1.12 ± 0.035. With GAAGCGCCGG the switch fluorescence ratio was 1.01 ± 0.028. Sequence GAAGCGGATG has a switch fluorescence ratio of 1.01 ± 0.031. Sequence GAAGCTAGTA has a switch fluorescence ratio of 1.02 ± 0.024. GAAGCTGAAT gave a switch fluorescence ratio of 1.01 ± 0.0029. Work on GAAGCTGCCA yielded a switch fluorescence ratio of 1.031 ± 0.0067. GAAGCTTGGG showed a switch fluorescence ratio of 1.04 ± 0.025. In the case of GAAGGAAAGA, the switch fluorescence ratio is reported as 1.02 ± 0.037. Work on GAAGGAACCG yielded a switch fluorescence ratio of 1.025 ± 0.0063. In the case of GAAGGAATAG, the switch fluorescence ratio is reported as 1.66 ± 0.92. Sequence GAAGGATATT has a switch fluorescence ratio of 1.018 ± 0.0039. For GAAGGCAGGG, the switch fluorescence ratio was 0.986 ± 0.029. For GAAGGCATTC, the switch fluorescence ratio was 1.06 ± 0.031. GAAGGCCCTG gave a switch fluorescence ratio of 1.01 ± 0.04. With GAAGGCCTGT the switch fluorescence ratio was 0.9745 ± 0.0097. Sequence GAAGGCTAAT has a switch fluorescence ratio of 0.974 ± 0.022. GAAGGCTCCG showed a switch fluorescence ratio of 1.04 ± 0.014. In the case of GAAGGGATGC, the switch fluorescence ratio is reported as 1.26 ± 0.073. GAAGGGCATT gave a switch fluorescence ratio of 0.9963 ± 0.0015. GAAGGGCGGC gave a switch fluorescence ratio of 1.01 ± 0.024. GAAGGGGAAA showed a switch fluorescence ratio of 1 ± 0.045. GAAGGGGAAG gave a switch fluorescence ratio of 0.998 ± 0.0043. GAAGGGGCAA gave a switch fluorescence ratio of 1.18 ± 0.13. For GAAGGGGGAC, the switch fluorescence ratio was 1.01 ± 0.046. GAAGGGGGGC was tested, and the switch fluorescence ratio was 1.05 ± 0.18. Work on GAAGGGGTGT yielded a switch fluorescence ratio of 1.01 ± 0.031. With GAAGGTGAGT the switch fluorescence ratio was 1.03 ± 0.014. For GAAGGTGATC, the switch fluorescence ratio was 1.01 ± 0.012. Work on GAAGGTGTGC yielded a switch fluorescence ratio of 1.07 ± 0.1. For GAAGGTTTGT, the switch fluorescence ratio was 1.002 ± 0.01. Work on GAAGTAACAG yielded a switch fluorescence ratio of 1.03 ± 0.027. For GAAGTAGAGT, the switch fluorescence ratio was 0.963 ± 0.028. In the case of GAAGTAGCCT, the switch fluorescence ratio is reported as 0.9985 ± 0.0086. GAAGTGAGGT showed a switch fluorescence ratio of 1.01 ± 0.016. With GAAGTGCGAG the switch fluorescence ratio was 1.004 ± 0.008. GAAGTGGGGT was tested, and the switch fluorescence ratio was 0.995 ± 0.015. GAAGTGTGAA gave a switch fluorescence ratio of 1 ± 0.022. In the case of GAAGTTGCCC, the switch fluorescence ratio is reported as 0.994 ± 0.028. GAAGTTGGGA gave a switch fluorescence ratio of 0.9857 ± 0.0095. GAAGTTTGTG gave a switch fluorescence ratio of 1.019 ± 0.0075. Sequence GAAGTTTGTT has a switch fluorescence ratio of 0.98 ± 0.026. Sequence GAATAAAGTT has a switch fluorescence ratio of 0.986 ± 0.046. In the case of GAATAAATAG, the switch fluorescence ratio is reported as 1 ± 0.024. Sequence GAATAACTAG has a switch fluorescence ratio of 0.9776 ± 0.0088. GAATAGGGGC showed a switch fluorescence ratio of 0.965 ± 0.01. For GAATATACGC, the switch fluorescence ratio was 1.04 ± 0.021. GAATATATGT showed a switch fluorescence ratio of 1.04 ± 0.028. GAATATTTTT was tested, and the switch fluorescence ratio was 1.02 ± 0.034. GAATCAAAAA was tested, and the switch fluorescence ratio was 1 ± 0.088. For GAATCATACA, the switch fluorescence ratio was 1.05 ± 0.074. For GAATCGTAGC, the switch fluorescence ratio was 1 ± 0.022. GAATCGTGAG was tested, and the switch fluorescence ratio was 0.999 ± 0.04. Sequence GAATCTATTC has a switch fluorescence ratio of 1.01 ± 0.061. In the case of GAATCTTAAA, the switch fluorescence ratio is reported as 0.997 ± 0.026. GAATGAAGGT was tested, and the switch fluorescence ratio was 0.985 ± 0.013. With GAATGAGCGT the switch fluorescence ratio was 0.9799 ± 0.003. In the case of GAATGAGTTG, the switch fluorescence ratio is reported as 0.977 ± 0.02. In the case of GAATGCATTT, the switch fluorescence ratio is reported as 1.02 ± 0.038. For GAATGCGGGC, the switch fluorescence ratio was 0.99 ± 0.017. Work on GAATGCTGGT yielded a switch fluorescence ratio of 0.966 ± 0.023. With GAATGGATGG the switch fluorescence ratio was 1 ± 0.011. GAATGGGGAT was tested, and the switch fluorescence ratio was 1.01 ± 0.076. GAATGGGGCC gave a switch fluorescence ratio of 1.01 ± 0.035. Work on GAATGGGTAA yielded a switch fluorescence ratio of 1.02 ± 0.033. In the case of GAATGTATTG, the switch fluorescence ratio is reported as 1.013 ± 0.006. With GAATGTCTGC the switch fluorescence ratio was 0.99 ± 0.037. With GAATGTTAGT the switch fluorescence ratio was 0.964 ± 0.013. GAATTAAATT showed a switch fluorescence ratio of 1.01 ± 0.018. Sequence GAATTAACAA has a switch fluorescence ratio of 0.999 ± 0.024. GAATTAATCG showed a switch fluorescence ratio of 0.988 ± 0.039. For GAATTAGAAA, the switch fluorescence ratio was 0.999 ± 0.014. GAATTCGATC showed a switch fluorescence ratio of 1.02 ± 0.029. Sequence GAATTGAGCA has a switch fluorescence ratio of 0.996 ± 0.019. Sequence GAATTGCTGG has a switch fluorescence ratio of 1.01 ± 0.015. Sequence GAATTGGCCT has a switch fluorescence ratio of 1.02 ± 0.019. For GAATTGTGGG, the switch fluorescence ratio was 0.989 ± 0.039. For GAATTTGGGA, the switch fluorescence ratio was 0.997 ± 0.013. Sequence GAATTTGTCC has a switch fluorescence ratio of 0.988 ± 0.013. Sequence GAATTTGTTA has a switch fluorescence ratio of 1.026 ± 0.0059. In the case of GACAAAAAAA, the switch fluorescence ratio is reported as 1.06 ± 0.012. GACAAAACTA showed a switch fluorescence ratio of 1.16 ± 0.064. For GACACACAAA, the switch fluorescence ratio was 1.18 ± 0.11. Sequence GACACACAAG has a switch fluorescence ratio of 1.14 ± 0.016. GACACCAAAT showed a switch fluorescence ratio of 1.039 ± 0.0035. Work on GACACGGCAT yielded a switch fluorescence ratio of 1.13 ± 0.018. GACACTCAGG gave a switch fluorescence ratio of 1.083 ± 0.0013. GACAGAGGTT was tested, and the switch fluorescence ratio was 1 ± 0.021. Work on GACAGATCCC yielded a switch fluorescence ratio of 0.982 ± 0.014. Work on GACAGCTTGG yielded a switch fluorescence ratio of 1.0064 ± 9.5e-05. In the case of GACAGGGAAC, the switch fluorescence ratio is reported as 1.01 ± 0.021. GACAGGGGCC gave a switch fluorescence ratio of 0.987 ± 0.018. For GACAGGGGCG, the switch fluorescence ratio was 1.19 ± 0.16. In the case of GACAGGGTTG, the switch fluorescence ratio is reported as 1.001 ± 0.0062. GACATCGGCA showed a switch fluorescence ratio of 1.03 ± 0.016. GACATGTAAA gave a switch fluorescence ratio of 1.048 ± 0.0023. GACCAGGGAT was tested, and the switch fluorescence ratio was 1.088 ± 0.0031. With GACCAGTAAG the switch fluorescence ratio was 0.9819 ± 0.0091. GACCCGATTA showed a switch fluorescence ratio of 1.02 ± 0.034. Sequence GACCCGTCAG has a switch fluorescence ratio of 1.01 ± 0.013. GACCCTATTC gave a switch fluorescence ratio of 1.09 ± 0.05. For GACCGGGCTT, the switch fluorescence ratio was 0.9753 ± 0.0038. With GACCGGTGGG the switch fluorescence ratio was 0.9787 ± 0.0065. In the case of GACCTATTTC, the switch fluorescence ratio is reported as 1.01 ± 0.019. With GACCTGGGGC the switch fluorescence ratio was 0.973 ± 0.068. With GACGAACCGG the switch fluorescence ratio was 1.051 ± 0.0095. Sequence GACGAAGTTT has a switch fluorescence ratio of 1.32 ± 0.7. In the case of GACGAATCCA, the switch fluorescence ratio is reported as 1.03 ± 0.046. Sequence GACGACGATG has a switch fluorescence ratio of 1.016 ± 0.0022. With GACGACGTTG the switch fluorescence ratio was 1.06 ± 0.026. Work on GACGAGTTTT yielded a switch fluorescence ratio of 1.01 ± 0.022. GACGATGGGT gave a switch fluorescence ratio of 1.029 ± 0.0032. With GACGATTCTT the switch fluorescence ratio was 0.97989 ± 0.00092. GACGGATGAC was tested, and the switch fluorescence ratio was 1.33 ± 0.15. GACGGGAGGG gave a switch fluorescence ratio of 1.02 ± 0.02. Sequence GACGGGATGG has a switch fluorescence ratio of 0.993 ± 0.056. GACGGGGACA gave a switch fluorescence ratio of 1.06 ± 0.023. With GACGGGGCAG the switch fluorescence ratio was 0.995 ± 0.015.

Reference: the supplement of paper PMC10126150
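Also: ATP exposure 15 min at 22 °C before imaging.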
